Data reported in US20230212587A1, “Mutant Hydroxyphenylpyruvate Dioxygenase Polypeptide, Encoding Gene Thereof and Use Therefor” (Beijing Dabeinong Biotechnology Co., Ltd., priority 2019, published 2023).
Residue numbers refer to the chain shown, from its start. Numbers in names are those of the source.

B1: TaHPPDm-F372A-02: Triticum aestivum HPPD mutant F372A, SEQ ID NO: 42 (protein)
chain: MPPTPTTPAATGAGAAAAVTPEHARPRRMVRFNPRSDRFHTLSFHHVEFWCADAASAAGRFAFALGAPLAARSDLSTGNSVHASQLLRSGNLAFLFTAPYANGCDAATASLPSFSADAARRFSADHGLAVRSIALRVADAAEAFRASVDGGARPAFSPVDLGRGFGFAEVELYGDVVLRFVSHPDGTDVPFLPGFEGVSNPGAVDYGLTRFDHVVGNVPELASAAAYVAGFTGFHEFAEFTTEDVGTAESGLNSMVLANNSEGVLLPLNEPVHGTKRRSQIQTFLEHHGGPGVQHIAVASSDVLRTLREMRARSAMGGFDFLPPPLPKYYEGVRRIAGDVLSEAQIKECQELGVLVDRDDQGVLLQIATKPVGDRPTLFLEMIQRIGCMEKDERGEEYQKGGCGGFGKGNFSELFKSIEDYEKSLEAKQSAAVQGS
modifications: TaHPPDm-F372A Amino Acid Sequence
B2: BdHPPD-02: native Brachypodium distachyon HPPD, SEQ ID NO: 45 (protein)
chain: MPPPATTAAPAAAAVTPEHARPPRRVARVNPRSDRFSALSFHHVELWCADAASAAGRFSFALGAPPAARSDLSTGNSAHASILLRSGSLAFLFTAPYAPSPASDSAASIPSFSASAARQFTADHGGLAVRAVALRVSSASDAFHASVSAGARPSFPPADLGQGFALAEVELYGDVVLRFISHPDENTEIPFLPGFESVSNPGASTYGLTRFDHVVGNVPSLAPVAAYIAGFTGFHEFAEFTAEDVGTADSGLNSVVLANNSERVLLPLNEPVHGTKRRSQIQTYLDHHGGPGVQHIALASDDVLRTLREMRARSAMGGFEFLAPPPPNYYDGVRRRAGDVLSEAQIKECQELGVLVDRDDQGVLLQIFTKPVGDRPTLFLEMIQRIGCMEKDEIGQEQQKGGCGGFGKGNFSELFRSIEEYEKSLEAKQSAVVQES
modifications: Brachypodium distachyon; BdHPPD Amino Acid Sequence
B3: BdHPPDm-F372A-02: Brachypodium distachyon HPPD mutant F372A, SEQ ID NO: 48 (protein)
chain: B2 chain with F368A
modifications: BdHPPDm-F372A Amino Acid Sequence
B4: N3HPPDm-F372A-02: Burkholderia sp. N3 HPPD mutant F372A, SEQ ID NO: 162 (protein)
chain: MQIPNWENPVGTDGFEFIEYTAPDPKALGQLFERMGFTAIARHRHKDVTVYRQGDINFIINAEPHSFAQRFARLHGPSICAIAFRVQDAAKAYQHALELGAWGFDNKTGPMELNIPAIKGIGDSLIYFVDRWRGKNGAQPGAIGDISIYDVDFEPIAGANPNPAGHGLTYIDHLTHNVHRGRMQEWAEFYERLFNFREVRYFDIEGKVTGVKSKAMTSPCGKIRIPINEEGSDTAGQIQEYLDAYHGEGIQHIALGTNDIYGAVDGLRGKEVKLLDTIDTYYELVDRRVPDHGESLDELKKRKILIDGARDDLLLQIATENQIGPIFFEIIQRKGNQGFGEGNFKALFESIELDQIRRGVVQDKA
modifications: N3HPPDm-F372A Amino Acid Sequence
B5: N4HPPD-02: native Burkholderia sp. N4 HPPD, SEQ ID NO: 165 (protein)
chain: B4 chain with H65D, N160T, N258S, A318F, N343T
modifications: N4HPPD Amino Acid Sequence (Burkholderia)
B6: N4HPPDm-F372A-02: Burkholderia sp. N4 HPPD mutant F372A, SEQ ID NO: 168 (protein)
chain: B4 chain with H65D, N160T, N258S, N343T
modifications: N4HPPDm-F372A Amino Acid Sequence
B7: N5HPPD-02: native Sphingobium sp. N5 HPPD, SEQ ID NO: 171 (protein)
chain: MAADSENPLGLHGFAFAEFTSPDPAAMARQFEQLGFVPAARRKDRGLTLYRQGRIAFILNAGEGEQASAFRAAHGPSANGMAFNVADAKAAHRHAIQSGATDADTAQSALPGTYAIEGIGDSLLYLVDSDPFADWDEVPGWREASAERGVGLDLLDHLTHNVRRGQMRVWSEFYATLFGFEEQKFFDIKGQATGLFSQAMIAPDHEIRIPLNESQDDNSQIEEFIREYNGEGIQHLALTTPDIYSTVEKLRANGVRLQDTIDTYYDLVDERVPGHGEDLARLRKNRILIDGDVHDEGLLLQIFTETMFGPIFFEIIQRKGNEGFGNGNFQVLFESIELDQIRRGVVTVDA
modifications: N5HPPD Amino Acid Sequence (Burkholderia)
B8: N5HPPDm-F372A-02: Sphingobium sp. N5 HPPD mutant F372A, SEQ ID NO: 174 (protein)
chain: B7 chain with F303A
modifications: N5HPPDm-F372A Amino Acid Sequence

Tested on: Arabidopsis thaliana T1 plants
Assay: Topramezone tolerance of transgenic Arabidopsis thaliana T1 plants (pesticide damage grade by bleached leaf area, score, resistance evaluation)
Assay type: in vivo
Conditions: HPPDs from different species; number of plants (of 16) in this grade; topramezone 25 g ai/ha (1x), 7 DAT
Procedure, shortened: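 Herbicide tolerance was judged per plant on a bleaching scale (grade 0 no bleaching to grade 3 fully bleached) 7 DAT. Topramezone doses were 0, 25, 50 and 100 g ai/ha on 18-day-old T1 and wild-type plants.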

First: B1
Second: B2
The “Classification and statistics of pesticide damage grade Grade 0” value of the first is higher: 16 for the first, 0 for the second.

B3 and B4 are the same in “Classification and statistics of pesticide damage grade Grade 0” value: 16 for the first, 16 for the second.

Compared with B5, B6 is higher in “Classification and statistics of pesticide damage grade Grade 0” value: 5 for the first, 16 for the second.

First: B7
Second: B8
The “Classification and statistics of pesticide damage grade Grade 0” value of the first is lower: 6 for the first, 16 for the second.

B1 and B2 are the same in “Classification and statistics of pesticide damage grade Grade 1” value: 0 for the first, 0 for the second.

B3 and B4 are the same in “Classification and statistics of pesticide damage grade Grade 1” value: 0 for the first, 0 for the second.

First: B5
Second: B6
The “Classification and statistics of pesticide damage grade Grade 1” value of the first is higher: 6 for the first, 0 for the second.

Going from B7 to B8, the “Classification and statistics of pesticide damage grade Grade 1” value falls from 6 to 0.

B1 and B2 are the same in “Classification and statistics of pesticide damage grade Grade 2” value: 0 for the first, 0 for the second.

B3 and B4 are the same in “Classification and statistics of pesticide damage grade Grade 2” value: 0 for the first, 0 for the second.

First: B5
Second: B6
The “Classification and statistics of pesticide damage grade Grade 2” value of the first is higher: 5 for the first, 0 for the second.

Compared with B7, B8 is lower in “Classification and statistics of pesticide damage grade Grade 2” value: 4 for the first, 0 for the second.

First: B1
Second: B2
The “Classification and statistics of pesticide damage grade Grade 3” value of the first is lower: 0 for the first, 16 for the second.

B3 and B4 are the same in “Classification and statistics of pesticide damage grade Grade 3” value: 0 for the first, 0 for the second.

B5 and B6 are the same in “Classification and statistics of pesticide damage grade Grade 3” value: 0 for the first, 0 for the second.

B7 and B8 are the same in “Classification and statistics of pesticide damage grade Grade 3” value: 0 for the first, 0 for the second.

Same assay, conditions: HPPDs from different species; number of plants (of 16) in this grade; topramezone 100 g ai/ha (4x), 7 DAT

Compared with B1, B2 is lower in “Classification and statistics of pesticide damage grade Grade 0” value: 15 for the first, 0 for the second.

First: B3
Second: B4
The “Classification and statistics of pesticide damage grade Grade 0” value of the first is lower: 6 for the first, 12 for the second.

First: B5
Second: B6
The “Classification and statistics of pesticide damage grade Grade 0” value of the first is lower: 0 for the first, 12 for the second.

First: B7
Second: B8
The “Classification and statistics of pesticide damage grade Grade 0” value of the first is lower: 0 for the first, 13 for the second.

Compared with B1, B2 is lower in “Classification and statistics of pesticide damage grade Grade 1” value: 1 for the first, 0 for the second.

Compared with B3, B4 is lower in “Classification and statistics of pesticide damage grade Grade 1” value: 10 for the first, 4 for the second.

Going from B5 to B6, the “Classification and statistics of pesticide damage grade Grade 1” value falls from 8 to 4.

Compared with B7, B8 is lower in “Classification and statistics of pesticide damage grade Grade 1” value: 7 for the first, 3 for the second.

B1 and B2 are the same in “Classification and statistics of pesticide damage grade Grade 2” value: 0 for the first, 0 for the second.

B3 and B4 are the same in “Classification and statistics of pesticide damage grade Grade 2” value: 0 for the first, 0 for the second.

First: B5
Second: B6
The “Classification and statistics of pesticide damage grade Grade 2” value of the first is higher: 2 for the first, 0 for the second.

Going from B7 to B8, the “Classification and statistics of pesticide damage grade Grade 2” value falls from 5 to 0.

First: B1
Second: B2
The “Classification and statistics of pesticide damage grade Grade 3” value of the first is lower: 0 for the first, 16 for the second.

B3 and B4 are the same in “Classification and statistics of pesticide damage grade Grade 3” value: 0 for the first, 0 for the second.

First: B5
Second: B6
The “Classification and statistics of pesticide damage grade Grade 3” value of the first is higher: 6 for the first, 0 for the second.

First: B7
Second: B8
The “Classification and statistics of pesticide damage grade Grade 3” value of the first is higher: 4 for the first, 0 for the second.

Same assay, conditions: HPPDs from different species; score for pesticide damage 0-100; topramezone 25 g ai/ha (1x), 7 DAT

First: B1
Second: B2
The Scores of the first is lower: 0 for the first, 100 for the second.

B3 and B4 are the same in Scores: 0 for the first, 0 for the second.

Going from B5 to B6, the Scores falls from 33 to 0.

Compared with B7, B8 is lower in Scores: 21 for the first, 0 for the second.

Same assay, conditions: HPPDs from different species; score for pesticide damage 0-100; topramezone 100 g ai/ha (4x), 7 DAT

Compared with B1, B2 is higher in Scores: 2 for the first, 100 for the second.

Going from B3 to B4, the Scores falls from 21 to 8.

Compared with B5, B6 is lower in Scores: 63 for the first, 8 for the second.

Compared with B7, B8 is lower in Scores: 60 for the first, 6 for the second.

Same assay, conditions: HPPDs from different species; topramezone 25 g ai/ha (1x), 7 DAT

For B1, the Resistance evaluation was “highly resistant (highly resistant plants (scores 0-15))”.
In the case of B2, the Resistance evaluation is reported as “non-resistant (non-resistant plants (scores 68-100))”.
In the case of B3, the Resistance evaluation is reported as “highly resistant (highly resistant plants (scores 0-15))”.
B4 was tested, and the Resistance evaluation was “highly resistant (highly resistant plants (scores 0-15))”.
For B5, the Resistance evaluation was “moderately resistant (moderately resistant plants (scores 16-33))”.
With B6 the Resistance evaluation was “highly resistant (highly resistant plants (scores 0-15))”.
B7 was tested, and the Resistance evaluation was “moderately resistant (moderately resistant plants (scores 16-33))”.
In the case of B8, the Resistance evaluation is reported as “highly resistant (highly resistant plants (scores 0-15))”.

Same assay, conditions: HPPDs from different species; topramezone 100 g ai/ha (4x), 7 DAT

With B1 the Resistance evaluation was “highly resistant (highly resistant plants (scores 0-15))”.
With B2 the Resistance evaluation was “non-resistant (non-resistant plants (scores 68-100))”.
In the case of B3, the Resistance evaluation is reported as “moderately resistant (moderately resistant plants (scores 16-33))”.
For B4, the Resistance evaluation was “highly resistant (highly resistant plants (scores 0-15))”.
For B5, the Resistance evaluation was “poorly resistant (poorly resistant plants (scores 34-67))”.
With B6 the Resistance evaluation was “highly resistant (highly resistant plants (scores 0-15))”.
For B7, the Resistance evaluation was “poorly resistant (poorly resistant plants (scores 34-67))”.
With B8 the Resistance evaluation was “highly resistant (highly resistant plants (scores 0-15))”.
